Laboratory results as given in patent publication US20150267232A1, “IN VIVO AND IN VITRO CARBENE INSERTION AND NITRENE TRANSFER REACTIONS CATALYZED BY HEME ENZYMES” (California Institute of Technology, priority 2012, published 2015).

Assay: P450BM3 compilation plate screen (GC, cyclopropane peaks)
Format: biochemical
Conditions: for ee (cis): (R,S)-(S,R); for Absolute activity: sum of the area of the cyclopropane peaks over the area of the internal standard
[1] = chiral β-CDX GC, P450BM3 variants
[2] = diastereomeric excess = ([cis] − [trans])/([cis] + [trans]), P450BM3 variants

| Molecule | ee (cis) (chimeric P450s) | ee (cis) [1] | de (([cis] − [trans])/([cis] + [trans]), chimeric P450s) | de [2] | Absolute activity (P450BM3 variants) | Absolute activity (chimeric P450s) |
| --- | --- | --- | --- | --- | --- | --- |
| WT F87A: P450BM3 variant: F87A (protein, listed as Bacillus megaterium, cytochrome P450NADPH-P-450 reductase precursor, cytochrome P450 (BM3), CYP102A1) TIKEMPQPKTFGELKNLPLLNTDKPVQALMKIADELGEIFKFEAPGRVTRYLSSQRLIKEACDESRFDKNLSQALKFVRDFAGDGLATSWTHEKNWKKAHNILLPSFSQQAMKGYHAMMVDIAVQLVQKWERLNADEHIEVPEDMTRLTLDTIGLCGFNYRFNSFYRDQPHPFITSMVRALDEAMNKLQRANPDDPAYDENKRQFQEDIKVMNDLVDKIIADRKASGEQSDDLLTHMLNGKDPETGEPLDDENIRYQIITFLIAGHETTSGLLSFALYFLVKNPHVLQKAAEEAARVLVDPVPSYKQVKQLKYVGMVLNEALRLWPTAPAFSLYAKEDTVLGGEYPLEKGDELMVLIPQLHRDKTIWGDDVEEFRPERFENPSAIPQHAFKPFGNGQRACIGQQFALHEATLVLGMMLKHFDFEDHTNYELDIKETLTLKPEGFVVKAKSKKIPLGGIPSPSTEQSAKKVRKKAENAHNTPLLVLYGSNMGTAEGTARDLADIAMSKGFAPQVATLDSHAGNLPREGAVLIVTASYNGHPPDNAKQFVDWLDQASADEVKGVRYSVFGCGDKNWATTYQKVPAFIDETLAAKGAENIADRGEADASDDFEGTYEEWREHMWSDVAAYFNLDIENSEDNKSTLSLQFVDSAADMPLAKMHGAFSTNVVASKELQQPGSARSTRHLEIELPKEASYQEGDHLGVIPRNYEGIVNRVTARFGLDASQQIRLEAEEEKLAHLPLAKTVSVEELLQYVELQDPVTRTQLRAMAAKTVCPPHKVELEALLEKQAYKEQVLAKRLTMLELLEKYPACEMKFSEFIALLPSIRPRYYSISSSPRVDEKQASITVSVVSGEAWSGYGEYKGIASNYLAELQEGDTITCFISTPQSEFTLPKDPETPLIMVGPGTGVAPFRGFVQARKQLKEQGQSLGEAHLYFGCRSPHEDYLYQEELENAQSEGIITLHTAFSRMPNQPKTYVQHVMEQDGKKLIELLDQGAHFYICGDGSQMAPAVEATLMKSYADVHQVSEADARLWLQQLEEKGRYAKDVWAG | 56 | 57 | −28 | −28 | 0.001704 | 0.001704 |
| WT A328V: P450BM3 variant: A328V (protein, listed as Bacillus megaterium, cytochrome P450NADPH-P-450 reductase precursor, cytochrome P450 (BM3), CYP102A1) TIKEMPQPKTFGELKNLPLLNTDKPVQALMKIADELGEIFKFEAPGRVTRYLSSQRLIKEACDESRFDKNLSQALKFVRDFAGDGLFTSWTHEKNWKKAHNILLPSFSQQAMKGYHAMMVDIAVQLVQKWERLNADEHIEVPEDMTRLTLDTIGLCGFNYRFNSFYRDQPHPFITSMVRALDEAMNKLQRANPDDPAYDENKRQFQEDIKVMNDLVDKIIADRKASGEQSDDLLTHMLNGKDPETGEPLDDENIRYQIITFLIAGHETTSGLLSFALYFLVKNPHVLQKAAEEAARVLVDPVPSYKQVKQLKYVGMVLNEALRLWPTVPAFSLYAKEDTVLGGEYPLEKGDELMVLIPQLHRDKTIWGDDVEEFRPERFENPSAIPQHAFKPFGNGQRACIGQQFALHEATLVLGMMLKHFDFEDHTNYELDIKETLTLKPEGFVVKAKSKKIPLGGIPSPSTEQSAKKVRKKAENAHNTPLLVLYGSNMGTAEGTARDLADIAMSKGFAPQVATLDSHAGNLPREGAVLIVTASYNGHPPDNAKQFVDWLDQASADEVKGVRYSVFGCGDKNWATTYQKVPAFIDETLAAKGAENIADRGEADASDDFEGTYEEWREHMWSDVAAYFNLDIENSEDNKSTLSLQFVDSAADMPLAKMHGAFSTNVVASKELQQPGSARSTRHLEIELPKEASYQEGDHLGVIPRNYEGIVNRVTARFGLDASQQIRLEAEEEKLAHLPLAKTVSVEELLQYVELQDPVTRTQLRAMAAKTVCPPHKVELEALLEKQAYKEQVLAKRLTMLELLEKYPACEMKFSEFIALLPSIRPRYYSISSSPRVDEKQASITVSVVSGEAWSGYGEYKGIASNYLAELQEGDTITCFISTPQSEFTLPKDPETPLIMVGPGTGVAPFRGFVQARKQLKEQGQSLGEAHLYFGCRSPHEDYLYQEELENAQSEGIITLHTAFSRMPNQPKTYVQHVMEQDGKKLIELLDQGAHFYICGDGSQMAPAVEATLMKSYADVHQVSEADARLWLQQLEEKGRYAKDVWAG | – | – | – | −100 | 0.00083 | – |
| WT T88L: P450BM3 variant: T88L (protein, listed as Bacillus megaterium, cytochrome P450NADPH-P-450 reductase precursor, cytochrome P450 (BM3), CYP102A1) TIKEMPQPKTFGELKNLPLLNTDKPVQALMKIADELGEIFKFEAPGRVTRYLSSQRLIKEACDESRFDKNLSQALKFVRDFAGDGLFLSWTHEKNWKKAHNILLPSFSQQAMKGYHAMMVDIAVQLVQKWERLNADEHIEVPEDMTRLTLDTIGLCGFNYRFNSFYRDQPHPFITSMVRALDEAMNKLQRANPDDPAYDENKRQFQEDIKVMNDLVDKIIADRKASGEQSDDLLTHMLNGKDPETGEPLDDENIRYQIITFLIAGHETTSGLLSFALYFLVKNPHVLQKAAEEAARVLVDPVPSYKQVKQLKYVGMVLNEALRLWPTAPAFSLYAKEDTVLGGEYPLEKGDELMVLIPQLHRDKTIWGDDVEEFRPERFENPSAIPQHAFKPFGNGQRACIGQQFALHEATLVLGMMLKHFDFEDHTNYELDIKETLTLKPEGFVVKAKSKKIPLGGIPSPSTEQSAKKVRKKAENAHNTPLLVLYGSNMGTAEGTARDLADIAMSKGFAPQVATLDSHAGNLPREGAVLIVTASYNGHPPDNAKQFVDWLDQASADEVKGVRYSVFGCGDKNWATTYQKVPAFIDETLAAKGAENIADRGEADASDDFEGTYEEWREHMWSDVAAYFNLDIENSEDNKSTLSLQFVDSAADMPLAKMHGAFSTNVVASKELQQPGSARSTRHLEIELPKEASYQEGDHLGVIPRNYEGIVNRVTARFGLDASQQIRLEAEEEKLAHLPLAKTVSVEELLQYVELQDPVTRTQLRAMAAKTVCPPHKVELEALLEKQAYKEQVLAKRLTMLELLEKYPACEMKFSEFIALLPSIRPRYYSISSSPRVDEKQASITVSVVSGEAWSGYGEYKGIASNYLAELQEGDTITCFISTPQSEFTLPKDPETPLIMVGPGTGVAPFRGFVQARKQLKEQGQSLGEAHLYFGCRSPHEDYLYQEELENAQSEGIITLHTAFSRMPNQPKTYVQHVMEQDGKKLIELLDQGAHFYICGDGSQMAPAVEATLMKSYADVHQVSEADARLWLQQLEEKGRYAKDVWAG | – | 23 | – | −78 | 0.004522 | – |
| 9-10A TS: V78A, P142S, T175I, A184V, S226R, H236Q, E252G, A290V, L353V, I366V, E442K (protein, listed as Bacillus megaterium, cytochrome P450NADPH-P-450 reductase precursor, cytochrome P450 (BM3), CYP102A1, V78A, P142S, T175I, A184V, S226R, H236Q, E252G, A290V, L353V, I366V, E442K) TIKEMPQPKTFGELKNLPLLNTDKPVQALMKIADELGEIFKFEAPGRVTRYLSSQRLIKEACDESRFDKNLSQALKFARDFAGDGLFTSWTHEKNWKKAHNILLPSFSQQAMKGYHAMMVDIAVQLVQKWERLNADEHIEVSEDMTRLTLDTIGLCGFNYRFNSFYRDQPHPFIISMVRALDEVMNKLQRANPDDPAYDENKRQFQEDIKVMNDLVDKIIADRKARGEQSDDLLTQMLNGKDPETGEPLDDGNIRYQIITFLIAGHETTSGLLSFALYFLVKNPHVLQKVAEEAARVLVDPVPSYKQVKQLKYVGMVLNEALRLWPTAPAFSLYAKEDTVLGGEYPLEKGDEVMVLIPQLHRDKTVWGDDVEEFRPERFENPSAIPQHAFKPFGNGQRACIGQQFALHEATLVLGMMLKHFDFEDHTNYELDIKETLTLKPKGFVVKAKSKKIPLGGIPSPSTEQSAKKVRKKAENAHNTPLLVLYGSNMGTAEGTARDLADIAMSKGFAPQVATLDSHAGNLPREGAVLIVTASYNGHPPDNAKQFVDWLDQASADEVKGVRYSVFGCGDKNWATTYQKVPAFIDETLAAKGAENIADRGEADASDDFEGTYEEWREHMWSDVAAYFNLDIENSEDNKSTLSLQFVDSAADMPLAKMHGAFSTNVVASKELQQPGSARSTRHLEIELPKEASYQEGDHLGVIPRNYEGIVNRVTARFGLDASQQIRLEAEEEKLAHLPLAKTVSVEELLQYVELQDPVTRTQLRAMAAKTVCPPHKVELEALLEKQAYKEQVLAKRLTMLELLEKYPACEMKFSEFIALLPSIRPRYYSISSSPRVDEKQASITVSVVSGEAWSGYGEYKGIASNYLAELQEGDTITCFISTPQSEFTLPKDPETPLIMVGPGTGVAPFRGFVQARKQLKEQGQSLGEAHLYFGCRSPHEDYLYQEELENAQSEGIITLHTAFSRMPNQPKTYVQHVMEQDGKKLIELLDQGAHFYICGDGSQMAPAVEATLMKSYADVHQVSEADARLWLQQLEEKGRYAKDVWAG | – | −54 | – | −75 | 0.00192 | – |
| 9-10A TS F87A: 9-10A TS + F87A (protein, listed as Bacillus megaterium, cytochrome P450NADPH-P-450 reductase precursor, cytochrome P450 (BM3), CYP102A1) TIKEMPQPKTFGELKNLPLLNTDKPVQALMKIADELGEIFKFEAPGRVTRYLSSQRLIKEACDESRFDKNLSQALKFARDFAGDGLATSWTHEKNWKKAHNILLPSFSQQAMKGYHAMMVDIAVQLVQKWERLNADEHIEVSEDMTRLTLDTIGLCGFNYRFNSFYRDQPHPFIISMVRALDEVMNKLQRANPDDPAYDENKRQFQEDIKVMNDLVDKIIADRKARGEQSDDLLTQMLNGKDPETGEPLDDGNIRYQIITFLIAGHETTSGLLSFALYFLVKNPHVLQKVAEEAARVLVDPVPSYKQVKQLKYVGMVLNEALRLWPTAPAFSLYAKEDTVLGGEYPLEKGDEVMVLIPQLHRDKTVWGDDVEEFRPERFENPSAIPQHAFKPFGNGQRACIGQQFALHEATLVLGMMLKHFDFEDHTNYELDIKETLTLKPKGFVVKAKSKKIPLGGIPSPSTEQSAKKVRKKAENAHNTPLLVLYGSNMGTAEGTARDLADIAMSKGFAPQVATLDSHAGNLPREGAVLIVTASYNGHPPDNAKQFVDWLDQASADEVKGVRYSVFGCGDKNWATTYQKVPAFIDETLAAKGAENIADRGEADASDDFEGTYEEWREHMWSDVAAYFNLDIENSEDNKSTLSLQFVDSAADMPLAKMHGAFSTNVVASKELQQPGSARSTRHLEIELPKEASYQEGDHLGVIPRNYEGIVNRVTARFGLDASQQIRLEAEEEKLAHLPLAKTVSVEELLQYVELQDPVTRTQLRAMAAKTVCPPHKVELEALLEKQAYKEQVLAKRLTMLELLEKYPACEMKFSEFIALLPSIRPRYYSISSSPRVDEKQASITVSVVSGEAWSGYGEYKGIASNYLAELQEGDTITCFISTPQSEFTLPKDPETPLIMVGPGTGVAPFRGFVQARKQLKEQGQSLGEAHLYFGCRSPHEDYLYQEELENAQSEGIITLHTAFSRMPNQPKTYVQHVMEQDGKKLIELLDQGAHFYICGDGSQMAPAVEATLMKSYADVHQVSEADARLWLQQLEEKGRYAKDVWAG | – | 5 | – | −60 | 0.001546 | – |
